The values below are quoted from earlier work in paper PMC3814599.

Broadly, the Kd is the concentration at which binding is half-saturated.

“And” between values parts separate entries of the source, which are not always exact repeats. Equal entries are not always repeated.

In the data set the target is HIV-1 capsid (CA) NTD (Human immunodeficiency virus 1) (UniProt O93182).

Sequence of NUP358 (P49792 whole entry): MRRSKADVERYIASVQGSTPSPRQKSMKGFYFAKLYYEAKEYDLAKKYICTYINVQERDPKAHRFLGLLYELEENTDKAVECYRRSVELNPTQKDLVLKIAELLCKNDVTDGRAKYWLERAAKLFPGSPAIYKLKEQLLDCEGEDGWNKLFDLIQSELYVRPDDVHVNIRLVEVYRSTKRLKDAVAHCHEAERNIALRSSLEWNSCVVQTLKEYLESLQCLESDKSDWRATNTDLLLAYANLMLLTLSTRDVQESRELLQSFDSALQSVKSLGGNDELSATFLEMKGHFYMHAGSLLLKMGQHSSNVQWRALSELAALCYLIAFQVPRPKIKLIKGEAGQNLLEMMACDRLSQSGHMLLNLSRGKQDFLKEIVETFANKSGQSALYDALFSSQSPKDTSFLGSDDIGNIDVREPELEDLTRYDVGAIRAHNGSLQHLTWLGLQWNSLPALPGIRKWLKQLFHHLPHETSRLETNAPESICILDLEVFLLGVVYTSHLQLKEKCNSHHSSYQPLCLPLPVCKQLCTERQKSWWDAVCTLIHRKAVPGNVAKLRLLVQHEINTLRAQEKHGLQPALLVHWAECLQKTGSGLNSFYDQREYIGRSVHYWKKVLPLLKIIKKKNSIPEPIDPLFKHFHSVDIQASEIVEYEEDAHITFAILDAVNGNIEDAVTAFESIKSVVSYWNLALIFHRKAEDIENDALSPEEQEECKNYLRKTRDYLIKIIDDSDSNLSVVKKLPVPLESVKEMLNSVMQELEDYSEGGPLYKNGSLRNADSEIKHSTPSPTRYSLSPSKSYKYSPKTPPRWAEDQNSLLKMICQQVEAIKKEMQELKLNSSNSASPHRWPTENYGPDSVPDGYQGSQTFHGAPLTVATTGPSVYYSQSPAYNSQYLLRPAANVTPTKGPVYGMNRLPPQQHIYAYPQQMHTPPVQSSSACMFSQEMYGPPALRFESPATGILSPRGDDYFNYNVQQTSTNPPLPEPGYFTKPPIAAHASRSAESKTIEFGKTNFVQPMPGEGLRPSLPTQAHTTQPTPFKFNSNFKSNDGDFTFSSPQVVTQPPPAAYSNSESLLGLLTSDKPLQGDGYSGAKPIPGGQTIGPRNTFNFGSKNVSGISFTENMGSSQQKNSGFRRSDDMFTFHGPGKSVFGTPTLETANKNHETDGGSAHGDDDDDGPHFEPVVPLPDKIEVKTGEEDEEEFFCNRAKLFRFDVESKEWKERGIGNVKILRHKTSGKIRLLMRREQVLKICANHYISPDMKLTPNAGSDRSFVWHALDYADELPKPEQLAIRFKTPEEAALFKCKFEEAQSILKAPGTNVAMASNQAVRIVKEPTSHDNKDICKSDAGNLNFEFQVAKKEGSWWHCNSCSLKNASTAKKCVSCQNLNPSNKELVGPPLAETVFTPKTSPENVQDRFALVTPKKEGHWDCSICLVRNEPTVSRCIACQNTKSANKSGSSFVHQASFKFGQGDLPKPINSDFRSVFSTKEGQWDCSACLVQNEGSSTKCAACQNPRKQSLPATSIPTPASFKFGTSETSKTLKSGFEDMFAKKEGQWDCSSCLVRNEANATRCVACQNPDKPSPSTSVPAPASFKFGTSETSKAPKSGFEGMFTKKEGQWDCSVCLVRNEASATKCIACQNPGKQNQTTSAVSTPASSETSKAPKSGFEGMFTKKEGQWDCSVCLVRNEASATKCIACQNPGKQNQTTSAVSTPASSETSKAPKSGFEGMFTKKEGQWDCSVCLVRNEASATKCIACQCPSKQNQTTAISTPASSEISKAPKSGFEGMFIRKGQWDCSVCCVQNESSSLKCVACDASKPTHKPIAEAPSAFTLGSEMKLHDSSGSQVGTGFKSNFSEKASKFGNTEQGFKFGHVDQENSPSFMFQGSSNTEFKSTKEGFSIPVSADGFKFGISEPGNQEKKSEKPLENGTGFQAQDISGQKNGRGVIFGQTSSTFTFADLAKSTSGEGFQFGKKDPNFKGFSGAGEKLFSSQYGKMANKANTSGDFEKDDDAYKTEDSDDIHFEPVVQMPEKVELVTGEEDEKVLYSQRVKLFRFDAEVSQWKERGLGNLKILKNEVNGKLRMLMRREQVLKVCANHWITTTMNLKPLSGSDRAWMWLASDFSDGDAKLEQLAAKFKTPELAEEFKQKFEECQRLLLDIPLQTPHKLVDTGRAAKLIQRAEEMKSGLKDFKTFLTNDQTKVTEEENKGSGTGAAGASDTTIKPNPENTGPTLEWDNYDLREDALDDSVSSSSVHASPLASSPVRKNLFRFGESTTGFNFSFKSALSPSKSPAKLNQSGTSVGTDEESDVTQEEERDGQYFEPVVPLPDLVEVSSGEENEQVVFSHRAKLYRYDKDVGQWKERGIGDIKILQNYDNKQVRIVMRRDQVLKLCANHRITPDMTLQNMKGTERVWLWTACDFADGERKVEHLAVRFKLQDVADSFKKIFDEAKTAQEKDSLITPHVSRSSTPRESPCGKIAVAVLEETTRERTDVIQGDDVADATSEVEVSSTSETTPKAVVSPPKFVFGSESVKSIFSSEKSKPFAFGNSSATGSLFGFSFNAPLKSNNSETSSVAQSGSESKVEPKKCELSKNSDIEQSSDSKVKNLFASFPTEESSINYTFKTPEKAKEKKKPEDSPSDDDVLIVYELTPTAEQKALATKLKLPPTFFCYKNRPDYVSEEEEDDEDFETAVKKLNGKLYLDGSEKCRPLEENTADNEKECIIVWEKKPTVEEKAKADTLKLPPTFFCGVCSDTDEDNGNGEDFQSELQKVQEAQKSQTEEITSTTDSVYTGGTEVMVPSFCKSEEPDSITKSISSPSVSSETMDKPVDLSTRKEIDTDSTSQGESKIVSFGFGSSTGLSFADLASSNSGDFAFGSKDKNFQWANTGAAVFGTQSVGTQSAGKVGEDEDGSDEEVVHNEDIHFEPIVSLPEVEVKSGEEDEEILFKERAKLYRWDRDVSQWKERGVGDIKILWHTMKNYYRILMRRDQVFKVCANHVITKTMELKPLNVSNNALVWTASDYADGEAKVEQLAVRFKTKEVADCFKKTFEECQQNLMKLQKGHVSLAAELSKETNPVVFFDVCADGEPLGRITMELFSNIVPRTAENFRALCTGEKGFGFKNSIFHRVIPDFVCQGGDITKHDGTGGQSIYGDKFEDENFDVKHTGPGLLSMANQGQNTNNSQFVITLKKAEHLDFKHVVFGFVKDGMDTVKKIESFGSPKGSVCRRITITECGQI

On to NUP358 (from UniProt P49792), for which the Kd is 150 µM and 16 µM.
